This test concerns the target C-terminally truncated SthK 1-420. Briefly: high-speed atomic force microscopy (HS-AFM); SthK reconstituted in lipid bilayers (E. coli polar lipid extract, lipid-to-protein ratio 0.8 to 1.0 w:w) as 2D-crystals, adsorbed on mica; imaging buffer 20 mM HEPES pH 8.0, 100 mM KCl, 100 uM cAMP; the oligomer is seen in topographs of single channels.

Experimental findings from PMC6162275 are described below.

In general, stoichiometry N refers to the number of molecules, sites or subunits per partner or assembly. With “C-terminally truncated SthK 1-420 (domain or fragment)”, the stoichiometry N amounted to 4.
